Measured values taken from the supplement of paper PMC10126150.
± gives the standard deviation of the averaged measurements.

These sequences were tested on ATP (assay: switch fluorescence ratio, 500 uM ATP over buffer (Cy3 cluster intensity, sum of 5 cycles each) (fold (ratio)); higher = stronger signal-on switching upon ATP binding; sequences stand for … in TCGTCGGCAGCGTCAGATGTGTATAAGAGACAGTTTTTTTTTTTTTTTTTTTTTTTTT…TC). Conditions: aptamer strand: ATP DNA aptamer (quencher-CACCTGGGGGAGTATTGCGGAGGAAGG + anchor), 100 nM annealed; ATP concentration: 500 uM.
Procedure, shortened: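 The fluorescence ratio divides summed target-cycle Cy3 intensity by summed buffer-cycle Cy3 intensity for each cluster and is averaged per switch-domain sequence. Cy3-labelled switching-strand clusters on a modified Illumina MiSeq flow-cell were annealed to 100 nM quencher-labelled ATP aptamer, then imaged in selection buffer and again after 15 min with 500 uM ATP at 22 °C. Five such cycles were run, with NaOH stripping and re-annealing between them, and clusters outside 100-1000 RFU were excluded.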
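Also: ATP exposure 15 min at 22 °C before imaging.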

Row | Sequence | switch fluorescence ratio
1 | ATAGCGTATT | 0.998 ± 0.049
2 | ATAGCTAACT | 1.02 ± 0.022
3 | ATAGCTATAA | 1.003 ± 0.0029
4 | ATAGGAAAGG | 0.999 ± 0.035
5 | ATAGGAAATC | 2.74 ± 0.75
6 | ATAGGACGCA | 1.265 ± 0.0027
7 | ATAGGAGGGT | 0.989 ± 0.014
8 | ATAGGCATGC | 1.06 ± 0.067
9 | ATAGGGAGTA | 0.979 ± 0.061
10 | ATAGGGATTC | 1.02 ± 0.038
11 | ATAGGGCTTG | 0.9746 ± 0.005
12 | ATAGGGGA | 0.989 ± 0.018
13 | ATAGGGGAAA | 0.987 ± 0.024
14 | ATAGGGGCAT | 1 ± 0.025
15 | ATAGGGGCGC | 1 ± 0.047
16 | ATAGGGGGAT | 0.993 ± 0.015
17 | ATAGGGGGGG | 1.03 ± 0.025
18 | ATAGGGTGGG | 1 ± 0.022
19 | ATAGGTATTC | 0.976 ± 0.026
20 | ATAGGTCTCG | 1 ± 0.031
21 | ATAGGTGGTT | 0.994 ± 0.019
22 | ATAGGTTCGT | 0.99 ± 0.012
23 | ATAGGTTGTT | 0.973 ± 0.016
24 | ATAGGTTTTG | 0.9864 ± 0.004
25 | ATAGTAAAAC | 1.05 ± 0.02

Row | Sequence | switch fluorescence ratio
26 | ATAGTAACAC | 1.06 ± 0.038
27 | ATAGTAGGTC | 1.048 ± 0.0015
28 | ATAGTATCTT | 1 ± 0.021
29 | ATAGTATGTA | 1.01 ± 0.031
30 | ATAGTCCTGG | 0.963 ± 0.019
31 | ATAGTGGACA | 0.9867 ± 0.0019
32 | ATAGTGGGGT | 0.987 ± 0.021
33 | ATAGTGGGTG | 0.997 ± 0.037
34 | ATAGTGGTGC | 0.958 ± 0.067
35 | ATAGTGTTGA | 1.03 ± 0.011
36 | ATAGTTAAAT | 0.943 ± 0.089
37 | ATAGTTCTGG | 0.992 ± 0.018
38 | ATAGTTGGA | 0.953 ± 0.019
39 | ATAGTTTAGG | 1.016 ± 0.0076
40 | ATATAACATT | 1.05 ± 0.018
41 | ATATAAGTAG | 1.03 ± 0.014
42 | ATATACTAAT | 1.02 ± 0.038
43 | ATATACTACA | 1.06 ± 0.022
44 | ATATAGAATA | 1.03 ± 0.024
45 | ATATAGGGGC | 1.02 ± 0.046
46 | ATATAGGTTG | 0.974 ± 0.051
47 | ATATATGCCG | 0.985 ± 0.044
48 | ATATATGTCG | 1.07 ± 0.049
49 | ATATATGTGG | 0.981 ± 0.057
50 | ATATATTGAG | 0.995 ± 0.019

Row | Sequence | switch fluorescence ratio
51 | ATATATTGCG | 1.016 ± 0.0031
52 | ATATATTGGT | 0.9922 ± 0.0046
53 | ATATATTTAT | 1.022 ± 0.0085
54 | ATATCAAGGA | 1 ± 0.029
55 | ATATCAGGGC | 0.961 ± 0.034
56 | ATATCCAATA | 0.99 ± 0.036
57 | ATATCCGACA | 1.054 ± 0.0056
58 | ATATCCTAGT | 0.987 ± 0.029
59 | ATATCCTTGG | 0.984 ± 0.026
60 | ATATCGGGGT | 1.001 ± 0.0045
61 | ATATGAAGGA | 0.993 ± 0.013
62 | ATATGAAGGT | 0.9893 ± 0.0047
63 | ATATGGCTTT | 1.02 ± 0.013
64 | ATATGGGTAC | 1.034 ± 0.0052
65 | ATATGGGTTC | 1 ± 0.026
66 | ATATGGTCGT | 0.998 ± 0.017
67 | ATATGGTTGG | 0.958 ± 0.016
68 | ATATGTAAAC | 1 ± 0.047
69 | ATATGTATGC | 0.97875 ± 3.4e-05
70 | ATATGTGGTA | 1.01 ± 0.031
71 | ATATGTTAGT | 0.988 ± 0.011
72 | ATATTAAAAC | 0.988 ± 0.034
73 | ATATTACTGC | 1.07 ± 0.02
74 | ATATTAGGGA | 1 ± 0.0079
75 | ATATTAGTTA | 0.997 ± 0.05

Row | Sequence | switch fluorescence ratio
76 | ATATTCCGTT | 0.968 ± 0.018
77 | ATATTGAAGG | 0.981 ± 0.012
78 | ATATTGACAC | 1.08 ± 0.012
79 | ATATTGGCTA | 1 ± 0.0039
80 | ATATTTAAGG | 0.995 ± 0.029
81 | ATATTTACCG | 1.04 ± 0.011
82 | ATATTTAGAG | 0.992 ± 0.027
83 | ATATTTAGTT | 1.01 ± 0.051
84 | ATATTTGCCA | 1.02 ± 0.021
85 | ATATTTTTT | 0.9892 ± 0.0038
86 | ATCAAAACGT | 1.04 ± 0.043
87 | ATCAAAGGTG | 1.404 ± 0.0027
88 | ATCAAATATC | 1.036 ± 0.0086
89 | ATCAACACCG | 1.06 ± 0.034
90 | ATCAACGGTG | 1.01 ± 0.044
91 | ATCAACGTTA | 1.07 ± 0.031
92 | ATCAAGACAG | 1.01 ± 0.033
93 | ATCAAGAGGG | 1.01 ± 0.014
94 | ATCACAGGTT | 1.07 ± 0.0082
95 | ATCACGGGAT | 1.015 ± 0.0039
96 | ATCACTTTAT | 1.38 ± 0.51
97 | ATCAGAATCC | 1.04 ± 0.013
98 | ATCAGACGGG | 1 ± 0.025
99 | ATCAGAGGTG | 1.14 ± 0.0059
100 | ATCAGCGACT | 0.993 ± 0.043

Row | Sequence | switch fluorescence ratio
101 | ATCAGGTAAG | 0.9682 ± 0.0024
102 | ATCAGTATAT | 0.992 ± 0.021
103 | ATCAGTTGTT | 1.0008 ± 0.00044
104 | ATCATAAGTT | 1.01 ± 0.016
105 | ATCATAATCT | 1.013 ± 0.0034
106 | ATCATACTTG | 1.03 ± 0.029
107 | ATCATATTCG | 0.99 ± 0.02
108 | ATCATCGGGG | 0.988 ± 0.043
109 | ATCATGCCTA | 0.989 ± 0.033
110 | ATCATGTGCG | 1.01 ± 0.033
111 | ATCCAGACGG | 1.04 ± 0.026
112 | ATCCAGGTTG | 1.68 ± 0.11
113 | ATCCATATT | 1.03 ± 0.029
114 | ATCCCCGACC | 1.25 ± 0.063
115 | ATCCGCTTTA | 3.28 ± 0.25
116 | ATCCGGGTGT | 2.74 ± 0.17
117 | ATCCGGTCGC | 1.04 ± 0.029
118 | ATCCGGTCGG | 1.03 ± 0.066
119 | ATCCGTGAGA | 1.05 ± 0.02
120 | ATCCGTGATG | 1.11 ± 0.051
121 | ATCCTCTCGG | 1.05 ± 0.017
122 | ATCCTTGTTG | 0.965 ± 0.027
123 | ATCGACATAT | 1.043 ± 0.0031
124 | ATCGACATTA | 1.01 ± 0.017
125 | ATCGACGTGT | 1.02 ± 0.02

Row | Sequence | switch fluorescence ratio
126 | ATCGAGGGA | 0.995 ± 0.061
127 | ATCGAGTAAG | 1.02 ± 0.029
128 | ATCGATGAGG | 0.991 ± 0.058
129 | ATCGATTGT | 0.973 ± 0.028
130 | ATCGCAATTG | 1.89 ± 0.36
131 | ATCGCGGGTT | 0.99 ± 0.05
132 | ATCGCGTCGT | 0.995 ± 0.035
133 | ATCGCTATGT | 1.05 ± 0.043
134 | ATCGCTGGGA | 0.972 ± 0.02
135 | ATCGCTTACA | 1.02 ± 0.028
136 | ATCGGAAAG | 1.65 ± 0.92
137 | ATCGGAATGT | 1.012 ± 0.0063
138 | ATCGGAGCCA | 1.02 ± 0.047
139 | ATCGGAGGGC | 1.02 ± 0.013
140 | ATCGGAGGGG | 0.957 ± 0.015
141 | ATCGGAGTTC | 0.989 ± 0.047
142 | ATCGGATATA | 0.989 ± 0.015
143 | ATCGGATGTA | 1.016 ± 0.0084
144 | ATCGGCAGGG | 0.981 ± 0.052
145 | ATCGGGGTAA | 1.04 ± 0.068
146 | ATCGGGTGCG | 0.981 ± 0.022
147 | ATCGGTACGT | 1.03 ± 0.021
148 | ATCGGTATCC | 1.035 ± 0.0064
149 | ATCGGTCCTT | 1.03 ± 0.027
150 | ATCGGTCTGT | 0.975 ± 0.018

Row | Sequence | switch fluorescence ratio
151 | ATCGGTCTTG | 1 ± 0.004
152 | ATCGGTTACC | 1.011 ± 0.0045
153 | ATCGTAAAAG | 0.9926 ± 0.0011
154 | ATCGTAGATT | 0.993 ± 0.016
155 | ATCGTAGGTT | 0.972 ± 0.015
156 | ATCGTATGGT | 1 ± 0.023
157 | ATCGTATTGT | 0.993 ± 0.03
158 | ATCGTCATGG | 1.01 ± 0.012
159 | ATCGTCGGTA | 1.03 ± 0.017
160 | ATCGTCGGTT | 0.973 ± 0.013
161 | ATCGTGGGAT | 1.01 ± 0.0081
162 | ATCGTTAGAA | 1.006 ± 0.0025
163 | ATCGTTGGCT | 1.04 ± 0.07
164 | ATCTAACGGC | 1.01 ± 0.0079
165 | ATCTAATGCC | 1.01 ± 0.042
166 | ATCTAGTACG | 1.02 ± 0.044
167 | ATCTCCGGGG | 1.04 ± 0.016
168 | ATCTCGCGCA | 1.36 ± 0.11
169 | ATCTCGGGTG | 1.01 ± 0.043
170 | ATCTCTGTAA | 1.264 ± 0.0068
171 | ATCTCTTTTA | 0.954 ± 0.0099
172 | ATCTGAGTAG | 0.999 ± 0.023
173 | ATCTGAGTTG | 0.989 ± 0.031
174 | ATCTGATATT | 1.01 ± 0.033
175 | ATCTGCAACA | 1.62 ± 0.042

Row | Sequence | switch fluorescence ratio
176 | ATCTGCTAGG | 1.01 ± 0.031
177 | ATCTGGGGCC | 1.01 ± 0.012
178 | ATCTGGTGCA | 1.055 ± 0.0059
179 | ATCTGTCAAG | 0.9954 ± 0.0058
180 | ATCTTCCAGG | 1.614 ± 0.0089
181 | ATCTTCGGGC | 0.9869 ± 0.0065
182 | ATCTTTATAT | 0.994 ± 0.019
183 | ATCTTTGTTG | 0.987 ± 0.018
184 | ATGAAATTGT | 1.02 ± 0.033
185 | ATGAACAGGG | 1.01 ± 0.05
186 | ATGAAGCGGT | 1.04 ± 0.083
187 | ATGAATGGAG | 1.01 ± 0.026
188 | ATGAATGTTA | 1.006 ± 0.0075
189 | ATGAATTCTG | 1.059 ± 0.0049
190 | ATGACAGCGG | 1.01 ± 0.11
191 | ATGACGCTGG | 1.03 ± 0.13
192 | ATGACGGGGT | 1.05 ± 0.085
193 | ATGACGGTAG | 0.97 ± 0.062
194 | ATGAGAACTC | 1.024 ± 0.0051
195 | ATGAGAAGTG | 0.969 ± 0.014
196 | ATGAGCAAGA | 1.49 ± 0.015
197 | ATGAGCCGAG | 0.9983 ± 0.009
198 | ATGAGCTGGG | 0.966 ± 0.015
199 | ATGAGGAGGA | 1.04 ± 0.013
200 | ATGAGGGTCT | 0.999 ± 0.044
